The source of these data is FireProtDB (doi:10.1021/bi020450z).

The labels stand for the following.
B1: Adrenodoxin, mitochondrial, P00257 (parent)
chain: MAARLLRVASAALGDTAGRWRLLARPRAGAGGLRGSRGPGLGGGAVATRTLSVSGRAQSSSEDKITVHFINRDGETLTTKGKIGDSLLDVVVQNNLDIDGFGACEGTLACSTCHLIFEQHIFEKLEAITDEENDMLDLAYGLTDRSRLGCQICLTKAMDNMTVRVPDAVSDARESIDMGMNSSKIE

The series covers variants of B1. The following applies: Bos taurus, reversible: YES, structure 1AYF, whole UniProt chain shown; for denaturant m value / denaturant midpoint (higher = more stable) / unfolding free energy: pH 7.5, 20 °C, GdnHCl, Fluorescence, Tris-HCl 50 mM; for Tm / change of melting temperature, mutant - wild type (higher = more stable): pH 8.5, Thermal, CD, Glycine.

As to F122W, the denaturant m value is 2.28 kcal/mol/M; the “denaturant midpoint (higher = more stable)” value (“denaturant midpoint” for short) was found to be 1.82 M; the unfolding free energy was 4.17 kcal/mol; the Tm (as a rule, the temperature at the midpoint of the melting transition) was 48.7 °C. For the same variant, the “change of melting temperature, mutant - wild type (higher = more stable)” value (from here on “change of melting temperature, mutant”) is -3.2 °C.
F117W: the denaturant m value came to 2.09 kcal/mol/M, the “denaturant midpoint” value was found to be 1.01 M, the unfolding free energy was determined as 2.12 kcal/mol and the Tm came out at 37.3 °C. In addition, the “change of melting temperature, mutant” value was -14.6 °C.
On to F69W, for which the Tm came to 46.6 °C and the “change of melting temperature, mutant” value is -5.3 °C.
As to F101W, the denaturant m value amounted to 2.19 kcal/mol/M, the “denaturant midpoint” value came to 1.5 M, the unfolding free energy came to 3.28 kcal/mol and the melting temperature (Tm) came out at 45.4 °C. In addition, the “change of melting temperature, mutant” value is -6.5 °C.
Turning to Y140W, the Tm came to 51.2 °C and the “change of melting temperature, mutant” value was -0.7 °C.
